US11931401B2, “Runx3 modified protein for prevention or treatment of cancer” (GeneCraft Inc., priority 2020, dated 2024)
“Also recorded” adds a separate entry of the source.

What was measured:
[1] = test system: stomach cancer cell lines; test: Apoptosis by flow cytometry (FITC-Annexin V / propidium iodide), stomach cancer cell lines; format: cell-based; details: stomach (gastric) cancer cell lines; listed as modified protein in which the 356th serine of Runx3 is substituted with alanine
Procedure: (§1) Each cell line was cultured in a 10 cm culture dish (5×10^5 cells) for 2 days and then approximately 2×10^6 cells of each cell line was infected with 1×10^8 VP of adenovirus or adenovirus Runx3 or adenovirus Runx3 S356A. After 48 hours, the cell death rate was measured by flow cytometry.

BRD2 [2] = biological target: T1, BRD2 (Homo sapiens, UniProt P25440); test: Time for which Runx3 protein forms a complex with Brd2 protein (IP/IB); format: binding; details: for time for which physical binding / complex with BRD2 was maintained: IP/IB
Procedure: The modified protein in which the 356th amino acid of Runx3 is substituted with alanine blocks the physical binding between Runx3 and CDK4, thereby inhibiting the phosphorylation of the 356th serine of Runx3 by CDK4. By inhibiting the conversion of the Rpa-Rx3-AC complex including Runx3 to the Rpa-Rx3-TR complex, the function of maintaining the anticancer activity of Runx3 is improved. Thus, the following experiment was performed to compare the time for the modified protein in which the 356th amino acid of Runx3 is substituted with alanine to form a complex by binding to Brd2 protein with the wild-type Runx3.
Particularly, the antibody targeting RUNX3 (5G4) (Cat #ab40278) was obtained from Abcam (Cambridge, UK), and the antibody was diluted 1:3000. BRD2 (M01; 1:1000; Cat #H00006046-M01, Abnova, Taipei City, Taiwan) was used for immunoblotting and immunoprecipitation.

[3] = test system: pancreatic cancer cell lines; test: Apoptosis by flow cytometry (FITC-Annexin V / propidium iodide), pancreatic cancer cell lines; format: cell-based; details: listed as modified protein in which the 356th serine of Runx3 is substituted with alanine
Procedure: as §1

lung cancer cell lines = test: Apoptosis by flow cytometry (FITC-Annexin V / propidium iodide), lung cancer cell lines; format: cell-based
Procedure: as §1

BRD2 [4] = biological target: T1, BRD2; test: Time-dependent BRD2-RUNX3 complex formation after serum stimulation by immunoprecipitation (IP) and immunoblotting (IB); format: binding; details: overexpressed Myc-tagged protein; FIG. 1
Procedure: The antibody targeting RUNX3 (5G4) (Cat #ab40278) was obtained from Abcam (Cambridge, UK), and the antibody was diluted 1:3000. BRD2 (M01; 1:1000; Cat #H00006046-M01, Abnova, Taipei City, Taiwan) was used for immunoblotting and immunoprecipitation.
RUNX3 phosphorylation in serine, the 356th amino acid of Runx3 protein, was measured by immunoprecipitation (IP) and immunoblotting (IB) in the same manner as described in Experimental Method 3 above.

T1 sequence (P25440 whole entry): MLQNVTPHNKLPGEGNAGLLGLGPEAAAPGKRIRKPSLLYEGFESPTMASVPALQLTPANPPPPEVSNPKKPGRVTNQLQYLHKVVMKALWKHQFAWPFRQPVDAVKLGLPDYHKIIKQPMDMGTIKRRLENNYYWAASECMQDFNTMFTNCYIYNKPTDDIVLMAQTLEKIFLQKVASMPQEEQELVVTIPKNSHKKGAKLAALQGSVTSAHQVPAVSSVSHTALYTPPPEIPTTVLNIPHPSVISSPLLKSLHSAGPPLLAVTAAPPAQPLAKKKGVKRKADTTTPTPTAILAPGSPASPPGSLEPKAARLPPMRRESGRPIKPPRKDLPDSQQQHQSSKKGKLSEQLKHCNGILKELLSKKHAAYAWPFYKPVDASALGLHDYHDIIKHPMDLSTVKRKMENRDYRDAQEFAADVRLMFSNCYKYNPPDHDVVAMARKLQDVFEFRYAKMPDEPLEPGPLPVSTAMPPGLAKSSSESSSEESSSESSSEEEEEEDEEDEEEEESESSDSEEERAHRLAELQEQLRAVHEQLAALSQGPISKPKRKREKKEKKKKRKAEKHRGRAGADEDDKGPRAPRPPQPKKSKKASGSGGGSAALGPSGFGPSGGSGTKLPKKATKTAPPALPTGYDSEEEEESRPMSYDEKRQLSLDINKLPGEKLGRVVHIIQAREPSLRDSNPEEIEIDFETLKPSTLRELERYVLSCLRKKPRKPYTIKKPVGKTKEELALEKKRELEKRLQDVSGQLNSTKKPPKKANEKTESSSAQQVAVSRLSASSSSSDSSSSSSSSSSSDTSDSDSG

B1: S356A: Runx3 modified protein: 356th serine substituted with alanine (TCA→GCA) (protein)
chain: MRIPVDPSTSRRFTPPSPAFPCGGGGGKMGENSGALSAQAAVGPGGRARPEVRSMVDVLADHAGELVRTDSPNFLCSVLPSHWRCNKTLPVAFKVVALGDVPDGTVVTVMAGNDENYSAELRNASAVMKNQVARFNDLRFVGRSGRGKSFTLTITVFTNPTQVATYHRAIKVTVDGPREPRRHRQKLEDQTKPFPDRFGDLERLRMRVTPSTPSPRGSLSTTSHFSSQPQTPIQGTSELNPFSDPRQFDRSFPTLPTLTESRFPDPRMHYPGAMSAAFPYSATPSGTSISSLSVAGMPATSRFHHTYLPPPYPGAPQNQSGPFQANPSPYHLYYGTSSGSYQFSMVAGSSSGGDRAPTRMLASCTSSAASVAAGNLMNPSLGGQSDGVEADGSHSNSPTALSTPGRMDEAVWRPY
modifications: Myc tag; Runx3 isoform2 amino acid
How did the “cancer cell death efficacy compared to the wild-type Runx3 protein (in words)” value [1] turn out when B1 was run?
The value was “more effective in killing cancer cells; also recorded: further increased the cancer cell death efficacy”.

What about the “time for which physical binding / complex with BRD2 was maintained” value (BRD2 [2]) of the same molecule?
The value was “up to 40 hours”.

What about the “cancer cell death efficacy compared to the wild-type Runx3 protein (in words)” value [3] of the same molecule?
The value was “more effective in killing cancer cells; also recorded: further increased the cancer cell death efficacy”.

And the “cancer cell killing compared to the wild-type Runx3 protein (in words)” value (lung cancer cell lines)?
Its value is “more effective in killing cancer cells”.

What about the “increase of apoptosis rate compared to the wild-type Runx3 protein” value (lung cancer cell lines; flow cytometry) of the same molecule?
The value was at least 2 times.

What about the “time for which binding with BRD2 was maintained after the serum stimulation” value (BRD2 [4]) of the same molecule?
The value was at most 8 h.

B2: S356 wild type: Wild-type Runx3 (Runt-related transcription factor 3) protein, 356th serine not substituted; SEQ ID NO: 2 (protein)
chain: MRIPVDPSTSRRFTPPSPAFPCGGGGGKMGENSGALSAQAAVGPGGRARPEVRSMVDVLADHAGELVRTDSPNFLCSVLPSHWRCNKTLPVAFKVVALGDVPDGTVVTVMAGNDENYSAELRNASAVMKNQVARFNDLRFVGRSGRGKSFTLTITVFTNPTQVATYHRAIKVTVDGPREPRRHRQKLEDQTKPFPDRFGDLERLRMRVTPSTPSPRGSLSTTSHFSSQPQTPIQGTSELNPFSDPRQFDRSFPTLPTLTESRFPDPRMHYPGAMSAAFPYSATPSGTSISSLSVAGMPATSRFHHTYLPPPYPGAPQNQSGPFQANPSPYHLYYGTSSGSYQFSMVAGSSSGGDRSPTRMLASCTSSAASVAAGNLMNPSLGGQSDGVEADGSHSNSPTALSTPGRMDEAVWRPY
modifications: Runx3 isoform2 amino acid
Which “time for which physical binding / complex with BRD2 was maintained” value (BRD2 [2]) does the source give for B2 here?
Its value is “up to 8 hours”.

What about the “time after which the binding of Runx3 and BRD2 was separated” value (BRD2 [2]; after the binding) of the same molecule?
Its value is 3 h.
